From patent US20030027152, “Generation of diagnostic tools to assay the human LHX3/P-LIM/LIM-3 factor” (Indiana University Advanced Research and Technology …, published 2003)

Assays:
GST [1] = molecular target: T1, GST (UniProt P08515 P08515:1-218); assay: EMSA; GST negative control; conditions: tags: GST alone, pGEX-KT; label: radiolabel
Method: (§1) FIG. 4B is an image depicting an analysis of recombinant porcine pLhx3 protein binding to DNA target sequences. The image depicts electrophoretic mobility shift assay using labeled wild type and mutant oligonucleotides representing the −351 to −324 bp region of the porcine αGSU gene promoter. Probes were incubated with the indicated proteins and competitor DNA and the resulting complexes were separated from free probe (F) by electrophoresis. The panel on the right of the figure was exposed three times as long as the left-hand panel to detect weak binding of GST-pLhx3 to the porcine αGSU binding site (which is indicated by an arrow).

GST-ΔLIM pLhx3 [2] = molecular target: T2, GST-ΔLIM pLhx3 (Sus scrofa, UniProt O97581 SEQ:134-383); assay: EMSA; affinity relative to full-length GST-pLhx3 (LIM deletion); competed by unlabeled wild type; conditions: tags: N-terminal GST (pGEX-KT); label: radiolabel
T2 chain: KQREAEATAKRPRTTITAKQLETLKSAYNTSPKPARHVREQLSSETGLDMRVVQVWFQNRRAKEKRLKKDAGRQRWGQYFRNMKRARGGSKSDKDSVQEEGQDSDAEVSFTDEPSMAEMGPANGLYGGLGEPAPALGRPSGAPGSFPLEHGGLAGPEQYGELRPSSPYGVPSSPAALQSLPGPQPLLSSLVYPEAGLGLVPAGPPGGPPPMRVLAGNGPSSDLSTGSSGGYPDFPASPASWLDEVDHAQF
Method: as §1

GST [3] = molecular target: T1, GST; assay: EMSA; GST negative control; conditions: tags: GST alone, pGEX-KT; label: radiolabel; remark: listed apart in the source
Method: (§2) FIG. 18B is an image of a gel depicting an electrophoretic mobility shift assay (EMSA) using Lhx3 consensus binding site (lanes 1-12) or αGSU gene −350 to −323 binding site (lanes 13 and 14) as oligonucleotide probes. Radiolabeled probes were incubated with the indicated proteins and competitor DNAs and the resulting complexes were separated from free probe (F) by electrophoresis. Lane 1, unprogrammed rabbit reticulocyte lysate as a negative control (lysate); lanes 2-5 (hLhx3a; hLhx3b; hLhx3a-myc; and hLhx36-myc, respectively), reactions contained in vitro translated hLhx3 proteins including isoforms comprising a myc tag epitope. A nonspecific band is noted by an asterisk (*). Human Lhx3 protein/DNA complexes are indicated by an arrow. Lane 6 depicts the lack of binding using GST as a negative control; lanes 7-14 (GST-hLhx3a, more GST-hLhx3a, comp plus hLhx3a, GST-hLhx3b; more GST-hLhx3b, comp plus hLhx3b, GST-hLhx3a, and GST-hLhx36, respectively) depict binding of the DNA probe by recombinant hLhx3 proteins expressed in E. coli. “Comp” denotes reactions containing approximately 1000-fold molar excess of unlabeled binding site as a competitor.

hLhx3a-myc = molecular target: T3, hLhx3a-myc (Homo sapiens, UniProt Q9UBR4 SEQ:1-397); assay: EMSA; similar to untagged; more effective than hLhx3b-myc; conditions: tags: C-terminal myc (pcDNA3.1/Myc-His); label: radiolabel
T3 sequence: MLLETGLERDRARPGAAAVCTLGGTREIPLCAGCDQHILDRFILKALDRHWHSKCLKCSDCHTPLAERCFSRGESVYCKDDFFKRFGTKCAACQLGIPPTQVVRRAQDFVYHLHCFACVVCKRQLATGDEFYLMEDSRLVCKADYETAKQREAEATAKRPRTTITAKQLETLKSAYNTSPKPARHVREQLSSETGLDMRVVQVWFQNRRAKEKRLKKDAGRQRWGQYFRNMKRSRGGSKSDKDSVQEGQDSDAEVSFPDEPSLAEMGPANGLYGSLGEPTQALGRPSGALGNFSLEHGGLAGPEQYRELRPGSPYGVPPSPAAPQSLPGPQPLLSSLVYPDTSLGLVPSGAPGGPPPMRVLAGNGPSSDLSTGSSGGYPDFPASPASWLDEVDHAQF
Method: (§3) Radiolabeled probes were incubated with the indicated proteins and competitor DNAs and the resulting complexes were separated from free probe (F) by electrophoresis. Lane 1, unprogrammed rabbit reticulocyte lysate as a negative control (lysate); lanes 2-5 (hLhx3a; hLhx3b; hLhx3a-myc; and hLhx36-myc, respectively), reactions contained in vitro translated hLhx3 proteins including isoforms comprising a myc tag epitope. A nonspecific band is noted by an asterisk (*). Human Lhx3 protein/DNA complexes are indicated by an arrow. Lane 6 depicts the lack of binding using GST as a negative control; lanes 7-14 (GST-hLhx3a, more GST-hLhx3a, comp plus hLhx3a, GST-hLhx3b; more GST-hLhx3b, comp plus hLhx3b, GST-hLhx3a, and GST-hLhx36, respectively) depict binding of the DNA probe by recombinant hLhx3 proteins expressed in E. coli. “Comp” denotes reactions containing approximately 1000-fold molar excess of unlabeled binding site as a competitor.
(§4) Without wishing to be bound by any particular theory, mechanisms for the different activities include the possibilities that the a-specific and b-specific domains are trans-activation or trans-repression domains, respectively, or that the a- and b-specific domains mediate interaction with distinct regulatory factors, or that the a- and b-specific domains modulate the DNA binding properties of hLhx3 differently. […]

hLhx3a [4] = molecular target: T4, hLhx3a (Homo sapiens, UniProt Q9UBR4 SEQ:1-397); assay: EMSA; binds more effectively than hLhx3b; conditions: label: radiolabel
T4 sequence: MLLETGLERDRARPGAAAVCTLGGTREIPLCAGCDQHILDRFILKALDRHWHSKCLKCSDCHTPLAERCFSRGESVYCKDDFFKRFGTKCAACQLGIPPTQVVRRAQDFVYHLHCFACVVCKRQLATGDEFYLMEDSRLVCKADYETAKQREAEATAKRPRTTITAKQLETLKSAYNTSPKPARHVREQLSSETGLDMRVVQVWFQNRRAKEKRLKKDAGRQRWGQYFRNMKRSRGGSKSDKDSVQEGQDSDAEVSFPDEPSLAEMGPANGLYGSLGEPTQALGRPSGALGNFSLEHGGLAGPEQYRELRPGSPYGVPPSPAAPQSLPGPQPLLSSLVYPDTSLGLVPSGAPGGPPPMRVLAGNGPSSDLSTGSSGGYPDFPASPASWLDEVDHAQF
Method: as §3, §4

GST-hLhx3a [5] = molecular target: T5, GST-hLhx3a (Homo sapiens, UniProt Q9UBR4 SEQ:1-397); assay: EMSA; reduced by 1000-fold unlabeled competitor; conditions: tags: N-terminal GST (pGEX-KT); label: radiolabel
T5 sequence: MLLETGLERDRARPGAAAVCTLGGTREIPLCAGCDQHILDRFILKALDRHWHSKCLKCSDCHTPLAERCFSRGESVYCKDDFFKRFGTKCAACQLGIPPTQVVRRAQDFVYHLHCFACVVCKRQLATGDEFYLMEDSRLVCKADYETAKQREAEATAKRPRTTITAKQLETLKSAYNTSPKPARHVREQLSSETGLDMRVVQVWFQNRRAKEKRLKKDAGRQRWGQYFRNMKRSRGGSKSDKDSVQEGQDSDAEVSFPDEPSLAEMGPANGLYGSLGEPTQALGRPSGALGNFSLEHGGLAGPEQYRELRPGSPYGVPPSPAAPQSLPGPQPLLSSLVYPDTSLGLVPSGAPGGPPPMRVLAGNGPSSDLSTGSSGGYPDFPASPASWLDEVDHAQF
Method: as §2

hLhx3a [6] = molecular target: T4, hLhx3a; assay: EMSA; in vitro translated; text states more effective than hLhx3b at both sites; conditions: label: radiolabel
Method: as §3, §4

GST-hLhx3a [7] = molecular target: T5, GST-hLhx3a; assay: EMSA; binds more effectively than GST-hLhx3b; conditions: tags: N-terminal GST (pGEX-KT); label: radiolabel
Method: as §2

GST-ΔLIM pLhx3 [8] = molecular target: T2, GST-ΔLIM pLhx3; assay: competition; 200 ng unlabeled mutant did not compete; conditions: tags: N-terminal GST (pGEX-KT)
Method: as §1

T1 sequence (P08515 whole entry, one chain of several): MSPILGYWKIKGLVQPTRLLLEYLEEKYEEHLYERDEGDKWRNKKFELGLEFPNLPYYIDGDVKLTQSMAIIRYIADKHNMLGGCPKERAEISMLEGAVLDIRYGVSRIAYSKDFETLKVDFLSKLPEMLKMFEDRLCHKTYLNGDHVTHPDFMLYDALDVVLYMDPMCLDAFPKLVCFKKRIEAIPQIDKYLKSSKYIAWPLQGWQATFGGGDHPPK

B1: porcine αGSU -351/-324 wild type (dsDNA)
DNA 1: ACATTAGGTACTTAGCTAATTAAATGTG
DNA 2: CACATTTAATTAGCTAAGTACCTAATGT
binding result (GST [1]): no binding
binding signal (GST-ΔLIM pLhx3 [2]): ≥ 15 fold

B2: Lhx3 consensus binding site (dsDNA)
DNA 1: CAGAAAATTAATTAATTGTAA
DNA 2: TTACAATTAATTAATTTTCTG
binding result (GST [3]): no binding
binding result (hLhx3a-myc): binds
binding result (hLhx3a [4]): binds
binding result (GST-hLhx3a [5]): binds

B3: αGSU -350/-323 (PGBE) (dsDNA)
DNA 1: ACATTAGGTACTTAGCTAATTAAATGTG
DNA 2: CACATTTAATTAGCTAAGTACCTAATGT
binding result (hLhx3a [6]): binds
binding result (GST-hLhx3a [7]): binds

B4: porcine αGSU -351/-324 mutant (dsDNA)
DNA 1: ACATTAGGTACTTGGCGCGCCAAATGTG
DNA 2: CACATTTGGCGCGCCAAGTACCTAATGT
binding result (GST-ΔLIM pLhx3 [8]): no binding
